B1: Enfortumab (antibody, human IgG1, kappa, V domains shown)
VH: EVQLVESGGGLVQPGGSLRLSCAASGFTFSSYNMNWVRQAPGKGLEWVSYISSSSSTIYYADSVKGRFTISRDNAKNSLSLQMNSLRDEDTAVYYCARAYYYGMDVWGQGTTVTVSS
VL: DIQMTQSPSSVSASVGDRVTITCRASQGISGWLAWYQQKPGKAPKFLIYAASTLQSGVPSRFSGSGSGTDFTLTISSLQPEDFATYYCQQANSFPPTFGGGTKVEIKR
notes: also called control antibody Enfortumab
B2: 42D20 hz10 (antibody, V domains shown)
VH: QVQLQESGPGLVKPSETLSLTCTVSGFSLIDYGVSWIRQPPGKGLEWIGVIWGDGKIYYNSVLKSRVTISKDNSKSQVSLKLSSVTAADTAVYYCAKQGGLLFYAMDYWGQGTLVTVSS
VL: DIVMTQSPDSLAVSLGERATINCKSSQSLLNSYSQKNYLAWYQQKPGQPPKLLIYFASTRESGVPDRFSGSGSGTDFTLTISSLQAEDVAVYYCQQHYNTPFTFGAGTKLELKR
notes: Humanized

Key:
human Nectin-4 [1] = target: T1, human Nectin-4 (human, UniProt Q96NY8 32-510); experiment: FACS on BT474 cells
T1 construct: whole, on cells; Cell-surface target of the FACS, endocytosis and proliferation assays (CHO-huNectin4 S8 cells, BT474 cells); the assay field says which cells; also called huNectin4; PVRL4
T1 sequence (looked up): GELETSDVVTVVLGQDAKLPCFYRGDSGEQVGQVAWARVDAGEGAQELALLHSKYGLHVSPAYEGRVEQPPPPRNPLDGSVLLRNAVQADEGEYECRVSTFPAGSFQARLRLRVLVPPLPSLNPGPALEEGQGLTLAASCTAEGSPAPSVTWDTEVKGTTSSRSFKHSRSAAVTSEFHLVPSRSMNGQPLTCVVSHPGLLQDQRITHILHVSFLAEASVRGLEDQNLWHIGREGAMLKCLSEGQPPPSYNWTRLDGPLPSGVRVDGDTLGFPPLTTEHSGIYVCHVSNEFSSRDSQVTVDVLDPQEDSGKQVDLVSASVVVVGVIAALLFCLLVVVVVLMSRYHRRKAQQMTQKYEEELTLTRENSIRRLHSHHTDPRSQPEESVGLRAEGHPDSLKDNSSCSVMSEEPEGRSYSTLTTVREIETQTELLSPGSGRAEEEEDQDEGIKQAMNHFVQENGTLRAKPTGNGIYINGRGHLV
Procedure: The solutions of different concentrations were added to 384-well plates, 10 µl per well.
BT474 cells (breast cancer cells) expressing Nectin-4 on the cell surface were collected by centrifugation at 100 g at room temperature for 5 minutes, and then the cells were washed with PBS containing 0.5% BSA once and were centrifuged at 100 g at room temperature for 5 minutes. […] After incubation at 4° C. for 1 hour, fluorescently labeled goat anti-human IgG secondary antibody was added. After continued incubation at 4° C. for 1 hour, mean fluorescence readings of the cell populations were analyzed by a flow cytometer.

human Nectin-4 [2] = target: T1, human Nectin-4; experiment: cell-based or functional assay
His-tagged human NECTIN4 = target: T2, His-tagged human NECTIN4 (human, UniProt Q96NY8 32-349); experiment: ELISA, antibody without cyno serum, plate coated with 0.2 µg/ml antigen, HRP goat anti-human IgG, OD450. The sheet does not say which of the two plates of Example 13 is drawn
T2 construct: Antigen of the BIAcore assay; also called antigen; recombinant NECTIN4 protein; not shown: His tag
T2 sequence: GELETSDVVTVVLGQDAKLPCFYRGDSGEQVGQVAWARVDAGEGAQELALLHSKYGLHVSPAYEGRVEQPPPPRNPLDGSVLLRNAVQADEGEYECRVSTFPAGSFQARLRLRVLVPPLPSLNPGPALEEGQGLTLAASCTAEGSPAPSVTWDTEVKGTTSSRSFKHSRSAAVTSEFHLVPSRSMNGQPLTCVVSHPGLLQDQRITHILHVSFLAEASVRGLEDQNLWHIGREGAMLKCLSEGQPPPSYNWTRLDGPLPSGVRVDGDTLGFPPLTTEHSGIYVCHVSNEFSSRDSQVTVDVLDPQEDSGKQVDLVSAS

Row | Binder | EC50 (human Nectin-4 [1]) [µg/mL] | EC50 (ng/ml), inhibition of proliferation of BT474 cells (human Nectin-4 [2]) [ng/mL] | Percentage of cell killing at the highest concentration (human Nectin-4 [2]) [%] | EC50 (read off the curve) (His-tagged human NECTIN4) [µg/mL]
1 | B1 | 98.8 | 3.37 | 43.3 | 
2 | B2 |  |  |  | ~0.1
